# Assay results reported in paper PMC6600415.
# B1: LysRS-DKK2-Fc fusion protein, Q9UBU2 34-259 (Fc fusion)
# chain: KLNSIKSSLGGETPGQAANRSAGMYQGLAFGGSKKGKNLGQAYPCSSDKECEVGRYCHSPHQGSSACMVCRRKKKRCHRDGMCCPSTRCNNGICIPVTESILTPHIPALDGTRHRDRNHGHYSNHDLGWQNLGRPHTKMSHIKGHEGDPCLRSSDCIEGFCCARHFWTKICKPVLHQGEVCTKQRKKGSHGLEIFQRCDCAKGLSCKVWKDATYSSKARLHVCQKI
# B2: TEV-cleaved LysRS-DKK2-Fc (DKK2-Fc released by TEV protease), Q9UBU2 34-259 (Fc fusion)
# chain: B1 chain
# Molecular target: low-density lipoprotein receptor-related protein 6 (LRP6), O75581
Binder,"TOPflash luciferase reporter activity in HEK 293T cells, percent inhibition, two concentrations up to 500 ng/mL (4.2 nM) [%]","TOPflash luciferase reporter activity in HEK 293T cells, percent inhibition; TEV-cleaved LysRS-DKK2-Fc (2): mixed with TEV protease and immediately added to cells [%]"
B1,47,–
B2,–,18
